The series concerns the molecule itself. Put plainly: SEC; about 100 ug of each purified protein, tags removed, on Superdex 75 10/300 GL in 50 mM Tris-HCl pH 8.0, 150 mM NaCl, 1 mM DTT at 4 °C, 0.5 ml/min; fractions on Coomassie-stained SDS-PAGE; calibrated with aldolase 158, conalbumin 75, ovalbumin 43, myoglobin 17 kDa (the results name a Sephacryl S-200 column). (In general: In gel filtration, larger molecules generally elute earlier.)

B1: EssB^MC (domain or fragment)
chain: RKVGHTVFKWVAIGMTTLSVLLIAFLAFLYFSVMKHNERIEKGYQAFVKDDYTQVLNTYDDLDGKKLDKEALYIYAKSYIQTNKQGLEKDKKENLLNNVTPNSNKDYLLYWMELGQGHLDEAINIATYLDDNDITKLALINKLNEIKNNGDLSNDKRSEETKKYNDKLQDILDKEKQVKDEKAKSEEEKAKAKDEKLKQQEENEKKQKEQAQKDKEKRQEAERKK
notes: EssB of Staphylococcus aureus, codons 220-444, C-terminal domain with the PTMD (229-251); also called EssB^CM; his-essB^CM product; source: E. coli, pET15b, purified (Ni-NTA Agarose, thrombin cleavage); not shown: His6, N-terminal, cleaved
Turning to B1, the binding result is recorded as “binds”.

B2: EssB^NM (domain or fragment)
chain: MVKNHNPKNEMQDMLTPLDAEEAAKTKLRLDMREIPKSSIKPEHFHLMYLLEQHSPYFIDAELTELRDSFQIHYDINDNHTPFDNIKSFTKNEKLRYLLNIKNLEEVNRTRYTFVLAPDELFFTRDGLPIAKTRGLQNVVDPLPVSEAEFLTRYKALVICAFNEKQSFDALVEGNLELHKGTPFETKVIEAATLDLLTAFLDEQYQKQEQDYSQNYAYVRKVGHTVFKWVAIGMTTLSVLLIAFLAFLYFSV
notes: EssB of Staphylococcus aureus, codons 1-252, N-terminal domain with the PTMD (229-251); also called his-essB^NM product; EssB(1-252); source: E. coli, pET15b, purified (Ni-NTA Agarose, thrombin cleavage); not shown: His6, N-terminal, cleaved
Turning to B2, the binding result is “binds”.

The record behind these values is paper PMC3489787, “Characterization of EssB, a protein required for secretion of ESAT-6 like proteins in Staphylococcus aureus” (BMC Microbiology, 2012).
